# Experimental data: IntAct's records for PubMed 20462497
# B1: Interleukin-10 receptor subunit beta (Homo sapiens), Q08334 (parent)
# chain: MAWSLGSWLGGCLLVSALGMVPPPENVRMNSVNFKNILQWESPAFAKGNLTFTAQYLSYRIFQDKCMNTTLTECDFSSLSKYGDHTLRVRAEFADEHSDWVNITFCPVDDTIIGPPGMQVEVLADSLHMRFLAPKIENEYETWTMKNVYNSWTYNVQYWKNGTDEKFQITPQYDFEVLRNLEPWTTYCVQVRGFLPDRNKAGEWSEPVCEQTTHDETVPSWMVAVILMASVFMVCLALLGCFALLWCVYKKTKYAFSPRNSLPQHLKEFLGHPHHNTLLFFSFPLSDENDVFDKLSVIAEDSESGKQNPGDSCSLGTPPGQGPQS
# B2: Interleukin-10 receptor subunit beta (Homo sapiens), Q08334 (parent)
# chain: B1 chain
# partner: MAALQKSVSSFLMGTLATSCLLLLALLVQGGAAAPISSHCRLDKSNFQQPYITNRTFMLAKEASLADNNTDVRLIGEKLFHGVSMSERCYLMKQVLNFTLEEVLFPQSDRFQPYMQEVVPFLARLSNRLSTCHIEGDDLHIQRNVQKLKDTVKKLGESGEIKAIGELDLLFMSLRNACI
# Variants of: B1
# Details: with il10_human IL10, P22301
# il10_human IL10, P22301, sequence (P22301 whole entry): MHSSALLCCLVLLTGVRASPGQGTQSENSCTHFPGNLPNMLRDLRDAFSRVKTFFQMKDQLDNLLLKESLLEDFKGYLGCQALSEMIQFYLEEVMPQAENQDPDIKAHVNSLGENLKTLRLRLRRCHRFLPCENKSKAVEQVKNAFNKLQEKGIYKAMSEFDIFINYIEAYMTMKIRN
row,Variant,effect of a mutation on the interaction
1,Y82A,decreasing interaction

# Variants of: B2
# Details: with il22_human IL22, Q9GZX6
row,Variant,effect of a mutation on the interaction
1,Y82A,decreasing interaction
